Reference: publication PMC12218921, “An adaptive peptide-binding site in ubiquitin receptor hRpn13 revealed by structural studies” (Nature Communications, 2025)

Test system: hRpn13 Pru
Assay: 1H-15N HSQC NMR of 15N-labeled hRpn13 Pru (1–150)
Type: binding, human
Details: 0.1 mM 15N-labeled protein, 600 MHz, 25 °C, pH 6.5

B1: hRpn13_ΔMTT: hRpn13 Pru variant with ENT M1 – T3, ^aG, and ^bP deleted (protein)
chain: GSSGALFPSLVPGSRGASNKYLVEFRAGKMSLKGTTVTPDKRKGLVYIQQTDDSLIHFCWKDRTSGNVEDDLIIFPDDCEFKRVPQCPSGRVYVLKFKAGSKRLFFWMQEPKTDQDEEHCRKVNEYLNNPPMPGALGASGSSGHELSAL
modifications: left off: GST, N-terminal, cleaved
notes: hRpn13 Pru variant with ENT M1 – T3, ^aG, and ^bP deleted
For B1, the “HSQC differences of hRpn13_ΔMTT versus hRpn13 (1–150)” value was “changes for a subset of amino acids in the Pru helix and proteasome-binding surface”.
